Article PMC2921123 (2010)

How the values were obtained:
Assay in all cases: SPR
[1] = biological target: human Igαβ heterodimer, extracellular domains fused with a leucine zipper (Igαβ-LZ) (human) (UniProt P11912)
[2] = biological target: Fc portion of a human BCR μ-chain (Fcμ, amino acid residues 258-586), corresponding to Cμ2-Cμ4 (human)
Fcμ Fc = biological target: T1, Fcμ Fc (Homo sapiens, UniProt P01871)
T1 chain: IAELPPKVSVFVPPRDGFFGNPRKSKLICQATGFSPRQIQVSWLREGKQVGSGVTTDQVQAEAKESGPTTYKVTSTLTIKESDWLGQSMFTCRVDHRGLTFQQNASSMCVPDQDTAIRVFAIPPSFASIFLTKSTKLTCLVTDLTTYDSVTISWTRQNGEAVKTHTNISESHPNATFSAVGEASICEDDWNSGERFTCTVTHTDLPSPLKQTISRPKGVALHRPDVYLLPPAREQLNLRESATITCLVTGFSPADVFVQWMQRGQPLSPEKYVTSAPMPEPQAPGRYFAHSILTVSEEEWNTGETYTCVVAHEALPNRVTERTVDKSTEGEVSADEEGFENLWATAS

Fc portion of a human BCR μ-chain (Fcμ, amino acid residues 258-586), corresponding to Cμ2-Cμ4 (human), sequence (P01871 whole entry, the tested form may be a part): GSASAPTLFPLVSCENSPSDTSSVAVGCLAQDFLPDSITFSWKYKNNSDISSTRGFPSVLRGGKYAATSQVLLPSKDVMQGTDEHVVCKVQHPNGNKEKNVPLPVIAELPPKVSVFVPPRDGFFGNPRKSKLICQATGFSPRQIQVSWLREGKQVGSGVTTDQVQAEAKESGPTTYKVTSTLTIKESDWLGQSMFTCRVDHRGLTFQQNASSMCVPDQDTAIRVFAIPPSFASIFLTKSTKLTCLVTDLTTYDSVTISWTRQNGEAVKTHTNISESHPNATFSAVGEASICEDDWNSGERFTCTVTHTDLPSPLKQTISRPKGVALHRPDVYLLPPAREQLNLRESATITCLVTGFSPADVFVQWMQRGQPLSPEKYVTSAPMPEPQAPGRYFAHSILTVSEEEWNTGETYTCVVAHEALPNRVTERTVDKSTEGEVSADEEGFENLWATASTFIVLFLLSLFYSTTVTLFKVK

Molecule: human IgM (from UniProt P01591 23-159) (antibody)
- Kd [1]: > 10 µM

Molecule: human Igα extracellular portion, N60A (α3) (from UniProt P11912 33-143) (domain or fragment)
- fold increase of binding against the wild type [2]: 2 fold

Molecule: human Igβ extracellular portion, Q123A/Q124A/K125A (β4) (from UniProt P40259 26-159) (domain or fragment)
- fold reduction of binding against the wild type [2]: 2 fold

Molecule: human Igβ extracellular portion, R55A/K56A/R57A (β1) (from UniProt P40259 26-159) (domain or fragment)
- fold reduction of binding against the wild type [2]: 6 fold

B1: Igαβ (protein)
chain 1: LWMHKVPASLMVSLGEDAHFQCPHNSSNNANVTWWRVLHGNYTWPPEFLGPGEDPNGTLIIQNVNKSHGGIYVCRVQEGNESYQQSCGTYLRVRQPPPRPFLDMGEGTKNRIITAEGIILLFCAVVPGTLLLFRKRWQNEKLGLDAGDEYEDENLYEGLNLDDCSMYEDISRGLQGTYQDVGSLNIGDVQLEKP
chain 2: ARSEDRYRNPKGSACSRIWQSPRFIARKRGFTVKMHCYMNSASGNVSWLWKQEMDENPQQLKLEKGRMEESQNESLATLTIQGIRFEDNGIYFCQQKCNNTSEVYQGCGTELRVMGFSTLAQLKQRNTLKDGIIMIQTLLIILFIIVPIFLLLDKDDSKAGMEEDHTYEGLDIDQTATYEDIVTLRTGEVKWSVGEHPGQE
- Kd (Fcμ Fc): ~2 µM
